The results in this text go back to US20180162923A1 (UNIVERSITY OF BRITISH COLUMBIA, published 2018).

The target in one experiment is DU145 cells. The experiment can be described thus: flow cytometry on DU145 cells, rhIgGFc at 100 nM, detected with anti-IgGFc-specific PE secondary antibody (control). Background: In flow cytometry, cells or beads pass a laser one at a time.
Experiment [1] concerns the target T1, PLEXIN B1 (human, UniProt O43157 20-2135).
T1 construct: whole, on cells; Endogenous receptor on cells
Briefly: alkaline phosphatase ligand binding assay on DU145 cells B1 siRNA1 against scramble siRNA; APTag background subtracted. The protocol: (§1) Cells were washed and then lysed. Plexin B1 levels were analyzed from lysates (30 μg) by polyacrylamide gel electrophoresis (PAGE). Western Blots were probed with anti-Plexin B1 and anti-phospho-Shc. Blots were re-probed with anti-vinculin and anti-Shc as loading control. DU145 cells were transfected with scramble siRNA, Plexin B1siRNA1 or PlexinB1 siRNA2 (10 nM) using RNAiMax™ reagent as directed by the manufacturer, (Invitrogen™, Missisauga, Ontario). Following 72 hours incubation the cells were replated at 20,000 cells/well in a 96-well flat bottom plate and let adhere for 4 hours. The remaining cells were lysed and assayed for PlexinB1 expression by Western Blot. The blot was reprobed with vinculin as loading control. Medium was replaced with DMEM without serum for 16 hours prior to the binding assay. […]
(§2) The binding assay was performed as previously described by […], J G. and LEDER, P. (1990), endogenous phosphatase heat inactivation was done in HBHA at 65° C. following the fixation step. Plate readings at 562 nm were taken initially and then every 24 hours. […]
(§3) DU145 cells transfected with scramble siRNA or, two distinct siRNAs targeting Plexin B1. […] AP-Sema3C binding to DU145 cells that were transfected with scramble or Plexin B1 siRNAs, where the mean and SEM AP-Sema3C binding performed was calculated in quadruplicate.

Experiment [2] has as its target T1, PLEXIN B1. The experiment can be described thus: alkaline phosphatase ligand binding assay on DU145 cells transfected with Plexin B1 siRNA B1 siRNA2 against scramble siRNA; APTag background subtracted. The protocol:
as §1, §2, §3

T1 sequence (O43157 20-2135): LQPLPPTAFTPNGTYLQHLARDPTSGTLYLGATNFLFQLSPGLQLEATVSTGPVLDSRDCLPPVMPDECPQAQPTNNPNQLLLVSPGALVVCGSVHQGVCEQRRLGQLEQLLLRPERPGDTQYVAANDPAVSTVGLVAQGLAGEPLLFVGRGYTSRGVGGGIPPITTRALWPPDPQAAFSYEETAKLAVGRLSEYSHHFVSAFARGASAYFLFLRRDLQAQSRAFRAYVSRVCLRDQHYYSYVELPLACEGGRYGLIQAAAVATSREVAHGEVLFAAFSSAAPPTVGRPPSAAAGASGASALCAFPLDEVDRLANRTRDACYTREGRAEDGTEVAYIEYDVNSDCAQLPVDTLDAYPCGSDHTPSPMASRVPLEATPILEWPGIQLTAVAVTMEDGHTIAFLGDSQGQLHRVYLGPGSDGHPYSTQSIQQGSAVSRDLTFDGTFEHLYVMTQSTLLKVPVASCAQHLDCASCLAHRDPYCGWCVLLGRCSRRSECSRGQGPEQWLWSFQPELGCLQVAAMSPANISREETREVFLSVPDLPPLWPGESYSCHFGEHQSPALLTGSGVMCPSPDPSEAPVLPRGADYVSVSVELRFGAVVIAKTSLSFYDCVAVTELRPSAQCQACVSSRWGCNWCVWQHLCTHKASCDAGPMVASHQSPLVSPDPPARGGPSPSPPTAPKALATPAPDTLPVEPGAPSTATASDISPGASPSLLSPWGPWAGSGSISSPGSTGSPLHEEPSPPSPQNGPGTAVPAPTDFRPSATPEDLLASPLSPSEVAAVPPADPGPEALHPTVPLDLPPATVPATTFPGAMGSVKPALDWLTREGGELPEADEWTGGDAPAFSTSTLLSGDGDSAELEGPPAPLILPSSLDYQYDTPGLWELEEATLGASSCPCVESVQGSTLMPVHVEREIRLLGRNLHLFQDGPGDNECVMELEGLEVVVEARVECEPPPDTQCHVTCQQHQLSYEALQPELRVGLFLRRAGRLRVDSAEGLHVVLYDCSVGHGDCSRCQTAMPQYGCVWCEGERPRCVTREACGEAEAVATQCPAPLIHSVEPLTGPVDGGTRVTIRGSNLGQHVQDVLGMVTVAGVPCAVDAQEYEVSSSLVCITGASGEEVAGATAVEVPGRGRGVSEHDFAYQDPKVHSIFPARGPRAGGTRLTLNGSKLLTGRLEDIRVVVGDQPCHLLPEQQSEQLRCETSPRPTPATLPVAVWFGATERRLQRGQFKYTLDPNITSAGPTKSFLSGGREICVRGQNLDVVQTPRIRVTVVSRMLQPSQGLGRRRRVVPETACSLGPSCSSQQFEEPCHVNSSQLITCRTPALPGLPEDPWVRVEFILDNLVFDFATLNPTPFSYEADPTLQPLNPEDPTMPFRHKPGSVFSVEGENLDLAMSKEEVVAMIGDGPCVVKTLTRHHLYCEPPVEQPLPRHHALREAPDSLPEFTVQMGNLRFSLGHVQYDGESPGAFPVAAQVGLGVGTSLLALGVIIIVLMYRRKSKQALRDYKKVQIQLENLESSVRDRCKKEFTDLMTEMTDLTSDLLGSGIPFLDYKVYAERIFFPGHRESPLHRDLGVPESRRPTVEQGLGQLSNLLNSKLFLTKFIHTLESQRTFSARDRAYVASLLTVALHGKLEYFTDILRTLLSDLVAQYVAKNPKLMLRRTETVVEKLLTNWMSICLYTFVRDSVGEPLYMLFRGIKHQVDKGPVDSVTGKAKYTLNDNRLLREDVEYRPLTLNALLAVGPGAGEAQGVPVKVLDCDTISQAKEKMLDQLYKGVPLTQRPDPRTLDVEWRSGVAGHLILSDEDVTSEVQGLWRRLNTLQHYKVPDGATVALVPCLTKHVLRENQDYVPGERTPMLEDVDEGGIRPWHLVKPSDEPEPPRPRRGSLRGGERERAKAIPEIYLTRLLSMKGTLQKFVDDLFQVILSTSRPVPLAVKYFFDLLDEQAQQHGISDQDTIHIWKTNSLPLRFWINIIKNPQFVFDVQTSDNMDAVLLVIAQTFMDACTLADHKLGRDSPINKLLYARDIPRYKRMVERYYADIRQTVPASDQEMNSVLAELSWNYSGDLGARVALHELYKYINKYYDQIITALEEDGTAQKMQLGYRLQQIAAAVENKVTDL

Recombinant human IgGFc registered a level of staining at 100 nM with DU145 cells of 6.01%.

B1: AP-SEMA3C (ligand, UniProt Q99985 21-751, looked up)
chain: GSSQPQARVYLTFDELRETKTSEYFSLSHHPLDYRILLMDEDQDRIYVGSKDHILSLNINNISQEALSVFWPASTIKVEECKMAGKDPTHGCGNFVRVIQTFNRTHLYVCGSGAFSPVCTYLNRGRRSEDQVFMIDSKCESGKGRCSFNPNVNTVSVMINEELFSGMYIDFMGTDAAIFRSLTKRNAVRTDQHNSKWLSEPMFVDAHVIPDGTDPNDAKVYFFFKEKLTDNNRSTKQIHSMIARICPNDTGGLRSLVNKWTTFLKARLVCSVTDEDGPETHFDELEDVFLLETDNPRTTLVYGIFTTSSSVFKGSAVCVYHLSDIQTVFNGPFAHKEGPNHQLISYQGRIPYPRPGTCPGGAFTPNMRTTKEFPDDVVTFIRNHPLMYNSIYPIHKRPLIVRIGTDYKYTKIAVDRVNAADGRYHVLFLGTDRGTVQKVVVLPTNNSVSGELILEELEVFKNHAPITTMKISSKKQQLYVSSNEGVSQVSLHRCHIYGTACADCCLARDPYCAWDGHSCSRFYPTGKRRSRRQDVRHGNPLTQCRGFNLKAYRNAAEIVQYGVKNNTTFLECAPKSPQASIKWLLQKDKDRRKEVKLNERIIATSQGLLIRSVQGSDQGLYHCIATENSFKQTIAKINFKVLDSEMVAVVTDKWSPWTWASSVRALPFHPKDIMGAFSHSEMQMINQYCKDTRQQHQQGDESQKMRGDYGKLKALINSRKSRNRRNQLPES
notes: Used as conditioned medium from 293T cells; also called AP-SEMA 3C construct; not shown: alkaline phosphatase tag of the APTag vector
Turning to B1, the “fold reduction of binding on Plexin B1 knockdown against scramble siRNA” value with PLEXIN B1 [1] worked out at 2.4 fold; in the experiment with PLEXIN B1 [2], 1.9 fold.
